Values joined by “and” are separate entries in the source; they are usually repeats but may differ in a detail not shown here. Equal entries are not always repeated.
B1: 14-3-3/HSPB6 protein-phosphopeptide chimera CH1 (14-3-3σΔC Clu3 fused through a GSGS linker to the HSPB6 phosphopeptide) (other)
chain: GPHMERASLIQKAKLAEQAERYEDMAAFMKGAVEKGEELSCEERNLLSVAYKNVVGGQRAAWRVLSSIEQKSNEEGSAAAGPEVREYREKVETELQGVCDTVLGLLDSHLIKEAGDAESRVFYLKMKGDYYRYLAEVATGDDKKRIIDSARSAYQEAMDISKKEMPPTNPIRLGLALNFSVFHYEIANSPEEAISLAKTTFDEAMADLHTLSEDSYKDSTLIMQLLRDNLTLWTGSGSLRRASAPL
modifications: phosphoserine at the Ser that is Ser16 of HSPB6 (RRApSAPL)
B2: untagged C-terminally truncated human 14-3-3σ (14-3-3σΔC: residues 1-231) (domain or fragment)
chain: MERASLIQKAKLAEQAERYEDMAAFMKGAVEKGEELSCEERNLLSVAYKNVVGGQRAAWRVLSSIEQKSNEEGSEEKGPEVREYREKVETELQGVCDTVLGLLDSHLIKEAGDAESRVFYLKMKGDYYRYLAEVATGDDKKRIIDSARSAYQEAMDISKKEMPPTNPIRLGLALNFSVFHYEIANSPEEAISLAKTTFDEAMADLHTLSEDSYKDSTLIMQLLRDNLTLWT
B3: chimera CH2 of 14-3-3σΔC Clu3 with the Gli phosphopeptide (other)
chain: GPHMERASLIQKAKLAEQAERYEDMAAFMKGAVEKGEELSCEERNLLSVAYKNVVGGQRAAWRVLSSIEQKSNEEGSAAAGPEVREYREKVETELQGVCDTVLGLLDSHLIKEAGDAESRVFYLKMKGDYYRYLAEVATGDDKKRIIDSARSAYQEAMDISKKEMPPTNPIRLGLALNFSVFHYEIANSPEEAISLAKTTFDEAMADLHTLSEDSYKDSTLIMQLLRDNLTLWTGSGSLRRASDPAQA
modifications: phosphoserine at the Ser that is Ser640 of Gli (RRApSDPAQA)

How the values were obtained:
[1] = molecular target: the molecule itself; assay: SEC
[2] = molecular target: the molecule itself; assay: crystal structure

| Protein | stoichiometry N [1] | binding result [2] |
| --- | --- | --- |
| B1 | 2 and 4 |  |
| B2 | 2 |  |
| B3 |  | binds |
